The text below walks through data of patent publication US20110009342A1, “USES OF PDCD5 POLYPEPTIDE FOR TUMOR CHEMOTHERAPY AND ORGAN PROTECTION” (priority 2008, published 2011).

Test [1] has as its system SiHa cervical cancer cells. The settings on record: Zhang et al. 2004; cited from earlier work.
The subject of test [2] is HeLa, MGC-803, HT-29, A549, PC-3, U937, HL-60, Jurkat T lymphocytes, K562, Raji, TF-1 cells. The test is described as follows: entry of exogenous PDCD5 into cell types. Type of test: cell-based.
In test [3] the test system is K562 cells. The test is described as follows: FITC/Annexin-V apoptosis by flow cytometry, IDR. It counts as cell-based. The protocol: Methods: Cell staining with FITC/Annexin-V and cell apoptosis in vitro detection by flow cytometry: K562 cells (ATCC) were maintained in RPMI 1640 (Life Technologies, USA) supplemented with 10% FBS (Hyclone, USA), and were plated in 24-well culture dishes to a density of 2×10^5 cells/mL. rhPDCD5 protein was added with a final concentration of 7.5 μg/mL, 15 μg/mL and 30 μg/mL, respectively, in each well. Chemotherapeutic drug IDR was then added with a final concentration of 56 ng/mL and RPMI 1640 with 10% FBS was added to make the system to 1 mL. After 24 hours of co-culture, the cells were stained with FITC/Annexin-V (Baosai company) and apoptosis was detected by flow cytometry.
Background: Flow cytometry measures light scatter and fluorescence of single cells or particles in a stream.

For test [4], the system named is U937 xenografts. The test is described as follows: U937 nude mice xenograft model, DNR. It counts as in vivo, BALB/c nude mice. The conditions noted are these: fifteenth day; rhPDCD5 40 μg into the tumor, DNR 40 μg intraperitoneal, once a day for 8 days. The protocol:
Methods: U937 nude mice xenograft model: BALB/c nude mice (5-6 weeks of age) were pretreated with cyclophosphamide (100 mg/kg, injected intraperitoneally once a day for two consecutive days). On day 3, 1×10^7 (100 μl) of U937 cells were subcutaneously (s.c.) injected into a single flank of each of the mice. The treatments began on day 7 after inoculation when the average tumor diameter reached about 5 mm. The mice were divided randomly into four groups (n=6, i.e., six mice in each group) and treated with normal saline (NS), rhPDCD5 (40 μg, locally injected into the tumor), DNR (40 μg, intraperitoneal) or DNR (40 μg) plus rhPDCD5 (40 μg), once a day for 8 consecutive days.
Tumor volume (V) was determined every other day by vernier caliper measurements and calculated based on the equation of V=ab^2/2, where “a” refers to a long tumor diameter and “b” refers to a short diameter, then tumor volume growth curve was drawn. The percentage of reductions in tumor growth was calculated using the formula: [1-(Tf-Ti)/(Cf-Ci)]×100, where Tf and Ti are the final and initial mean tumor volumes, respectively, of the group receiving a specific treatment, and Cf and Ci are the final and initial mean tumor volumes, respectively, of the NS control group. After the treatment, tumors were collected and weighed and tissues were sectioned and processed by histological hematoxylin and eosin (H&E) staining. Results were statistically analyzed using SPSS 13.0. The measurements were expressed as the mean±standard deviation. Data were analyzed by the single-factor ANOVA and Student's t test and are presented as mean±standard deviation (SD). P<0.05 was considered statistically significant.

The subject of test [5] is K562 cells. The test is described as follows: Annexin-V apoptosis by flow cytometry, Ara-C. Type of test: cell-based. The protocol: Methods: Cell staining with FITC/Annexin-V and cell apoptosis detection in vitro by flow cytometry: K562 cells (ATCC) were maintained in RPMI 1640 (Life Technologies, USA) supplemented with 10% FBS (Hyclone, USA), and were plated in 24-well culture dishes to a density of 2×10^5 cells per well. rhPDCD5 protein was added in each well with a final concentration of 15 μg/mL, 30 μg/mL and 60 μg/mL, respectively. Chemotherapeutic drug Ara-C (Pharmacia, Italia) was then added with a final concentration of 0.1 μg/mL and RPMI 1640 medium supplemented with 10% FBS was added to bring the culture system to 1 mL. After incubation for 48 hours, the cells were stained with Annexin-V/PI (Biosea) and then were analyzed for apoptosis by flow cytometry.

Test [6] concerns HL60 cells. The test is described as follows: colony-forming ability (CFA) assay, As2O3. It counts as cell-based. How it is done:
Analysis for colony forming ability (CFA): U937 cells (ATCC), in the logarithmic phase, were maintained in RPMI 1640 medium supplemented with 20% FBS and 0.4% methyl cellulose (Sigma) by the semi-solid colony culture method and were adjusted to a density of 5×10^3 cells/mL. The cells were divided into control groups and test groups, and each group was assayed in triple wells. U937 cells in the control groups were treated with DNR alone, with the final concentrations of 0 ng/mL and 0.5 ng/mL. U937 cells in the test group were treated with DNR of various concentrations combined with PDCD5 of various concentrations, while the final concentrations of PDCD5 were 0 μg/mL, 0.625 μg/mL, 1.25 μg/mL, and 2.5 μg/mL, respectively. After incubation for 14 days in a 37° C., 5% CO2 and saturatedly humidified incubator, a colony with more than 30 cells was counted by an inverted microscope in order to analyze colony forming ability of each group. The colony forming ability was shown as the ratio of average number of colony in each group versus that of the untreated control group in which the final concentrations of DNR and PDCD5 were 0 μg/mL.
Colony-forming ability (CFA) assay: HL60 cells of logarithmic growth phase were cultured by a method identical to that in Example 8. The cells were divided into control and test groups (each with 3 wells): In the control groups, the HL60 cells were treated only with arsenic trioxide and the final concentration of which were 0 μg/mL and 0.25 μg/mL, respectively; in the test groups, the HL60 cells were treated with different concentrations of As2O3, which was combined with different concentrations of PDCD5, the final concentrations of PDCD5 were 0 μg/mL, 5 μg/mL, 10 μg/mL and 20 μg/mL, respectively. Cultures were incubated in a 37° C., 5% CO2 and saturatedly humidified incubator for 14 days. The numbers of colonies (containing≧30 cells) were counted on day 14 by inverted microscope. The colony-forming ability was observed as the ratio of the number of average colony formation in the test groups versus that in the untreated control group. […]

B1: rhPDCD5: recombinant human programmed cell death 5 protein (SEQ ID NO:1) expressed in E. coli and purified (protein, listed as Homo sapiens)
chain: MADEELEALRRQRLAELQAKHGDPGDAAQQEAKHREAEMRNSILAQVLDQSARARLSNLALVKPEKTKAVENYLIQMARYGQLSEKVSEQGLIEILKKVSQQTEKTTTVKFNRRKVMDSDEDDDY
B1: in test [1], the “effect on apoptosis induced by IFNγ in vitro” value is “had a sensitized effect on apoptosis of SiHa cervical cancer cells”. For the same molecule, the “specificity for cell types while entering into cells” value in test [2] is reported as “shows no specificity for cell types”. For the same molecule, the “promotion of apoptosis induced by IDR” value in test [3] is listed as “could significantly promote apoptosis”. Further, in test [4], the “Average size of tumors (mean ± SD)” value was 571.96 ± 237.91 mm^3. The “promotion of apoptosis induced by Ara-C” value in test [5] is recorded as “could significantly promote apoptosis”. Moreover, in test [6], the “enhancement of CFA inhibition by As2O3” value was “can significantly enhance the CFA inhibition by As2O3”. For the same molecule, the “effect on the CFA of HL60” value in test [6] (rhPDCD5 alone) is recorded as “no significant affect”.
